Measured values reported in the Human Domainome abundance scans (Beltran et al. 2025).
± gives the uncertainty stated by the source.

B1: Zinc finger MYM-type protein 3, residues 589 to 668; numbered along this chain, Q14202 (parent)
chain: LSCHYCHSLFSGKPEVLDWQDQVFQFCCRDCCEDFKRLRGVVSQCEHCRQEKLLHEKLRFSGVEKSFCSEGCVLLYKQDF

Variants of: B1
Assay: abundance fitness (aPCA) (normalised: wild type 0, dead -1); higher = more abundant; growth selection in yeast, the domain comes from the species named
Conditions: Homo sapiens

In order of rising abundance fitness:
1. LSCHYCHSLFSGKPEVLDWQYQVFQFCCRDCCEDFKRLRGVVSQCEHCRQEKLLHEKLRFSGVEKSFCSEGCVLLYKQDF  -0.386 ± 0.089
2. LSCHYCHSLFSGKPEVLDWQVQVFQFCCRDCCEDFKRLRGVVSQCEHCRQEKLLHEKLRFSGVEKSFCSEGCVLLYKQDF  -0.355 ± 0.052
3. LSCHYCHSLFSGKPEVLDWYDQVFQFCCRDCCEDFKRLRGVVSQCEHCRQEKLLHEKLRFSGVEKSFCSEGCVLLYKQDF  -0.3 ± 0.21
4. LSCHYCHSLFSGKPEVLDWQCQVFQFCCRDCCEDFKRLRGVVSQCEHCRQEKLLHEKLRFSGVEKSFCSEGCVLLYKQDF  -0.204 ± 0.07
5. LSCHYCHSLFSGKPEVLDWQHQVFQFCCRDCCEDFKRLRGVVSQCEHCRQEKLLHEKLRFSGVEKSFCSEGCVLLYKQDF  -0.182 ± 0.1
6. LSCHYCHSLFSGKPEVLDWQPQVFQFCCRDCCEDFKRLRGVVSQCEHCRQEKLLHEKLRFSGVEKSFCSEGCVLLYKQDF  -0.146 ± 0.053
7. LSCHYCHSLFSGKPEVLDWQEQVFQFCCRDCCEDFKRLRGVVSQCEHCRQEKLLHEKLRFSGVEKSFCSEGCVLLYKQDF  -0.114 ± 0.056
8. LSCHYCHSLFSGKPEVLDWQGQVFQFCCRDCCEDFKRLRGVVSQCEHCRQEKLLHEKLRFSGVEKSFCSEGCVLLYKQDF  -0.114 ± 0.044
9. LSCHYCHSLFSGKPEVLDWQRQVFQFCCRDCCEDFKRLRGVVSQCEHCRQEKLLHEKLRFSGVEKSFCSEGCVLLYKQDF  -0.075 ± 0.044
10. LSCHYCHSLFSGKPEVLDWQDKVFQFCCRDCCEDFKRLRGVVSQCEHCRQEKLLHEKLRFSGVEKSFCSEGCVLLYKQDF  -0.075 ± 0.058
11. LSCHYCHSLFSGKPEVLDWQDPVFQFCCRDCCEDFKRLRGVVSQCEHCRQEKLLHEKLRFSGVEKSFCSEGCVLLYKQDF  -0.071 ± 0.05
12. LSCHYCHSLFSGKPEVLDWQDIVFQFCCRDCCEDFKRLRGVVSQCEHCRQEKLLHEKLRFSGVEKSFCSEGCVLLYKQDF  -0.068 ± 0.11
13. LSCHYCHSLFSGKPEVLDWQSQVFQFCCRDCCEDFKRLRGVVSQCEHCRQEKLLHEKLRFSGVEKSFCSEGCVLLYKQDF  -0.065 ± 0.045
14. LSCHYCHSLFSGKPEVLDWQDWVFQFCCRDCCEDFKRLRGVVSQCEHCRQEKLLHEKLRFSGVEKSFCSEGCVLLYKQDF  -0.054 ± 0.044
15. LSCHYCHSLFSGKPEVLDWQTQVFQFCCRDCCEDFKRLRGVVSQCEHCRQEKLLHEKLRFSGVEKSFCSEGCVLLYKQDF  0.004 ± 0.051
16. LSCHYCHSLFSGKPEVLDWQDQAFQFCCRDCCEDFKRLRGVVSQCEHCRQEKLLHEKLRFSGVEKSFCSEGCVLLYKQDF  0.023 ± 0.041
17. LSCHYCHSLFSGKPEVLDWQNQVFQFCCRDCCEDFKRLRGVVSQCEHCRQEKLLHEKLRFSGVEKSFCSEGCVLLYKQDF  0.027 ± 0.062
18. LSCHYCHSLFSGKPEVLDWQQQVFQFCCRDCCEDFKRLRGVVSQCEHCRQEKLLHEKLRFSGVEKSFCSEGCVLLYKQDF  0.033 ± 0.055
19. LSCHYCHSLFSGKPEVLDWQDFVFQFCCRDCCEDFKRLRGVVSQCEHCRQEKLLHEKLRFSGVEKSFCSEGCVLLYKQDF  0.047 ± 0.068
20. LSCHYCHSLFSGKPEVLDWQDLVFQFCCRDCCEDFKRLRGVVSQCEHCRQEKLLHEKLRFSGVEKSFCSEGCVLLYKQDF  0.063 ± 0.049
21. LSCHYCHSLFSGKPEVLDWQMQVFQFCCRDCCEDFKRLRGVVSQCEHCRQEKLLHEKLRFSGVEKSFCSEGCVLLYKQDF  0.068 ± 0.054
22. LSCHYCHSLFSGKPEVLDWQKQVFQFCCRDCCEDFKRLRGVVSQCEHCRQEKLLHEKLRFSGVEKSFCSEGCVLLYKQDF  0.086 ± 0.051
23. LSCHYCHSLFSGKPEVLDWQDYVFQFCCRDCCEDFKRLRGVVSQCEHCRQEKLLHEKLRFSGVEKSFCSEGCVLLYKQDF  0.101 ± 0.061
24. LSCHYCHSLFSGKPEVLDWQDCVFQFCCRDCCEDFKRLRGVVSQCEHCRQEKLLHEKLRFSGVEKSFCSEGCVLLYKQDF  0.117 ± 0.058
25. LSCHYCHSLFSGKPEVLDWQDRVFQFCCRDCCEDFKRLRGVVSQCEHCRQEKLLHEKLRFSGVEKSFCSEGCVLLYKQDF  0.165 ± 0.038
26. LSCHYCHSLFSGKPEVLDWQDTVFQFCCRDCCEDFKRLRGVVSQCEHCRQEKLLHEKLRFSGVEKSFCSEGCVLLYKQDF  0.174 ± 0.044
27. LSCHYCHSLFSGKPEVLDWQDSVFQFCCRDCCEDFKRLRGVVSQCEHCRQEKLLHEKLRFSGVEKSFCSEGCVLLYKQDF  0.24 ± 0.043
28. LSCHYCHSLFSGKPEVLDWQDGVFQFCCRDCCEDFKRLRGVVSQCEHCRQEKLLHEKLRFSGVEKSFCSEGCVLLYKQDF  0.253 ± 0.041
29. LSCHYCHSLFSGKPEVLDWQDNVFQFCCRDCCEDFKRLRGVVSQCEHCRQEKLLHEKLRFSGVEKSFCSEGCVLLYKQDF  0.255 ± 0.059
30. LSCHYCHSLFSGKPEVLDWQDAVFQFCCRDCCEDFKRLRGVVSQCEHCRQEKLLHEKLRFSGVEKSFCSEGCVLLYKQDF  0.26 ± 0.04
31. LSCHYCHSLFSGKPEVLDWQDHVFQFCCRDCCEDFKRLRGVVSQCEHCRQEKLLHEKLRFSGVEKSFCSEGCVLLYKQDF  0.269 ± 0.077
32. LSCHYCHSLFSGKPEVLDWQDVVFQFCCRDCCEDFKRLRGVVSQCEHCRQEKLLHEKLRFSGVEKSFCSEGCVLLYKQDF  0.288 ± 0.045
33. LSCHYCHSLFSGKPEVLDWQDDVFQFCCRDCCEDFKRLRGVVSQCEHCRQEKLLHEKLRFSGVEKSFCSEGCVLLYKQDF  0.297 ± 0.048
34. LSCHYCHSLFSGKPEVLDWQDMVFQFCCRDCCEDFKRLRGVVSQCEHCRQEKLLHEKLRFSGVEKSFCSEGCVLLYKQDF  0.309 ± 0.054
35. LSCHYCHSLFSGKPEVLDWQDEVFQFCCRDCCEDFKRLRGVVSQCEHCRQEKLLHEKLRFSGVEKSFCSEGCVLLYKQDF  0.313 ± 0.047
